*1 amine or outer side, *2 acyl side, *3 side chain or, on linkers, in order; H or OH if unused. Where no end group is shown, it is not given here. Side-chain parts run from the residue outwards. The star is where a group is joined. C18 diacid = O=C(O)CCCCCCCCCCCCCCCCC(=O)*; γGlu = O=C(O)[C@H](CCC(=O)[*:2])N[*:1]; PEG = not defined here; AEEA = NCCOCCOCC(=O)O
T1: human GIP receptor (human, UniProt P48546 22-466)
T1 sequence (looked up): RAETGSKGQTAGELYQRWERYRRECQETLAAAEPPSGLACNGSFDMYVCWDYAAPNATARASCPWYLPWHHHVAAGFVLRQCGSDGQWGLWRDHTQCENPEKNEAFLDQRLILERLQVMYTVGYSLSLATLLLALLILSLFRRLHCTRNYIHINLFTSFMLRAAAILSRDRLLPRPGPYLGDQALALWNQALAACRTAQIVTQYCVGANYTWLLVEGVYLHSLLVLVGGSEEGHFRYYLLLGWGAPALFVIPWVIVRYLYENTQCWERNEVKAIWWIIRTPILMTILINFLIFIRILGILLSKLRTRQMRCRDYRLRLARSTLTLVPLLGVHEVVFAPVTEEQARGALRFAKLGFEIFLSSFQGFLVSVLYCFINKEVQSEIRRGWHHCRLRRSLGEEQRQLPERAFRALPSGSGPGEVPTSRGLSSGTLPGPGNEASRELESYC


Target: T1, human GIP receptor
Test: cell-based or functional assay

| Binder | cAMP agonism % Emax [%] | cAMP antagonism [nM] | cAMP antagonism % inhib [%] | cAMP antagonism pIC50 |
| --- | --- | --- | --- | --- |
| EGTFISDYSIAMDKIHQK([AEEA-AEEA-γGlu-C18 diacid])DFVNWLLAQKPSSGAPPPS-NH2 (N-terminus assumed; SMILES CC[C@H](C)[C@H](NC(=O)[C@H](CO)NC(=O)[C@H](Cc1ccc(O)cc1)NC(=O)[C@H](CC(=O)O)NC(=O)[C@H](CO)NC(=O)[C@@H](NC(=O)[C@H](Cc1ccccc1)NC(=O)[C@@H](NC(=O)CNC(=O)[C@@H](N)CCC(=O)O)[C@@H](C)O)[C@@H](C)CC)C(=O)N[C@@H](C)C(=O)N[C@@H](CCSC)C(=O)N[C@@H](CC(=O)O)C(=O)N[C@@H](CCCCN)C(=O)N[C@H](C(=O)N[C@@H](Cc1c[nH]cn1)C(=O)N[C@@H](CCC(N)=O)C(=O)N[C@@H](CCCCNC(=O)COCCOCCNC(=O)COCCOCCNC(=O)CC[C@H](NC(=O)CCCCCCCCCCCCCCCCC(=O)O)C(=O)O)C(=O)N[C@@H](CC(=O)O)C(=O)N[C@@H](Cc1ccccc1)C(=O)N[C@H](C(=O)N[C@@H](CC(N)=O)C(=O)N[C@@H](Cc1c[nH]c2ccccc12)C(=O)N[C@@H](CC(C)C)C(=O)N[C@@H](CC(C)C)C(=O)N[C@@H](C)C(=O)N[C@@H](CCC(N)=O)C(=O)N[C@@H](CCCCN)C(=O)N1CCC[C@H]1C(=O)N[C@@H](CO)C(=O)N[C@@H](CO)C(=O)NCC(=O)N[C@@H](C)C(=O)N1CCC[C@H]1C(=O)N1CCC[C@H]1C(=O)N1CCC[C@H]1C(=O)N[C@@H](CO)C(N)=O)C(C)C)[C@@H](C)CC) [AT594] | 0 | 79.4 | 80 | 7.1 |
| EGTFISDYSIAMDKIK([AEEA-AEEA-γGlu-C18 diacid])QQDFVNWLLAQPSSGAPPPS-NH2 (N-terminus assumed; SMILES CC[C@H](C)[C@H](NC(=O)[C@H](CO)NC(=O)[C@H](Cc1ccc(O)cc1)NC(=O)[C@H](CC(=O)O)NC(=O)[C@H](CO)NC(=O)[C@@H](NC(=O)[C@H](Cc1ccccc1)NC(=O)[C@@H](NC(=O)CNC(=O)[C@@H](N)CCC(=O)O)[C@@H](C)O)[C@@H](C)CC)C(=O)N[C@@H](C)C(=O)N[C@@H](CCSC)C(=O)N[C@@H](CC(=O)O)C(=O)N[C@@H](CCCCN)C(=O)N[C@H](C(=O)N[C@@H](CCCCNC(=O)COCCOCCNC(=O)COCCOCCNC(=O)CC[C@H](NC(=O)CCCCCCCCCCCCCCCCC(=O)O)C(=O)O)C(=O)N[C@@H](CCC(N)=O)C(=O)N[C@@H](CCC(N)=O)C(=O)N[C@@H](CC(=O)O)C(=O)N[C@@H](Cc1ccccc1)C(=O)N[C@H](C(=O)N[C@@H](CC(N)=O)C(=O)N[C@@H](Cc1c[nH]c2ccccc12)C(=O)N[C@@H](CC(C)C)C(=O)N[C@@H](CC(C)C)C(=O)N[C@@H](C)C(=O)N[C@@H](CCC(N)=O)C(=O)N1CCC[C@H]1C(=O)N[C@@H](CO)C(=O)N[C@@H](CO)C(=O)NCC(=O)N[C@@H](C)C(=O)N1CCC[C@H]1C(=O)N1CCC[C@H]1C(=O)N1CCC[C@H]1C(=O)N[C@@H](CO)C(N)=O)C(C)C)[C@@H](C)CC) [AT593] | 0 | 63.1 | 86 | 7.2 |
| TFISDYK([PEG-PEG-γGlu-C18 diacid])IAMDKIHQQDFVNWLLAQKPSSGAPPPS-NH2 (reading uncertain; also: 2xPEG: PEG unit not given here) [AT597] | 0 | 79.4 | 81 | 7.1 |
| EGTFISDYSIAMDKIK([AEEA-AEEA-γGlu-C18 diacid])QQDFVNWLLAGGPSSGAPPPS-NH2 (N-terminus assumed; SMILES CC[C@H](C)[C@H](NC(=O)[C@H](CO)NC(=O)[C@H](Cc1ccc(O)cc1)NC(=O)[C@H](CC(=O)O)NC(=O)[C@H](CO)NC(=O)[C@@H](NC(=O)[C@H](Cc1ccccc1)NC(=O)[C@@H](NC(=O)CNC(=O)[C@@H](N)CCC(=O)O)[C@@H](C)O)[C@@H](C)CC)C(=O)N[C@@H](C)C(=O)N[C@@H](CCSC)C(=O)N[C@@H](CC(=O)O)C(=O)N[C@@H](CCCCN)C(=O)N[C@H](C(=O)N[C@@H](CCCCNC(=O)COCCOCCNC(=O)COCCOCCNC(=O)CC[C@H](NC(=O)CCCCCCCCCCCCCCCCC(=O)O)C(=O)O)C(=O)N[C@@H](CCC(N)=O)C(=O)N[C@@H](CCC(N)=O)C(=O)N[C@@H](CC(=O)O)C(=O)N[C@@H](Cc1ccccc1)C(=O)N[C@H](C(=O)N[C@@H](CC(N)=O)C(=O)N[C@@H](Cc1c[nH]c2ccccc12)C(=O)N[C@@H](CC(C)C)C(=O)N[C@@H](CC(C)C)C(=O)N[C@@H](C)C(=O)NCC(=O)NCC(=O)N1CCC[C@H]1C(=O)N[C@@H](CO)C(=O)N[C@@H](CO)C(=O)NCC(=O)N[C@@H](C)C(=O)N1CCC[C@H]1C(=O)N1CCC[C@H]1C(=O)N1CCC[C@H]1C(=O)N[C@@H](CO)C(N)=O)C(C)C)[C@@H](C)CC) [AT591] | 0 | 21.5 | 92 | 7.7 |
| TFISDYK([PEG-PEG-γGlu-C18 diacid])IAMDKIHQQDFVNWLLAGGPSSGAPPPS (not fully specified (C-terminus); reading uncertain) [AT602] | 0 | 35.5 | 100 | 7.5 |
| EGTFISDYSIAMDKIK([AEEA-AEEA-γGlu-C18 diacid])QQDFVNWLLAGGPSSGAPPPS-OH (N-terminus assumed; SMILES CC[C@H](C)[C@H](NC(=O)[C@H](CO)NC(=O)[C@H](Cc1ccc(O)cc1)NC(=O)[C@H](CC(=O)O)NC(=O)[C@H](CO)NC(=O)[C@@H](NC(=O)[C@H](Cc1ccccc1)NC(=O)[C@@H](NC(=O)CNC(=O)[C@@H](N)CCC(=O)O)[C@@H](C)O)[C@@H](C)CC)C(=O)N[C@@H](C)C(=O)N[C@@H](CCSC)C(=O)N[C@@H](CC(=O)O)C(=O)N[C@@H](CCCCN)C(=O)N[C@H](C(=O)N[C@@H](CCCCNC(=O)COCCOCCNC(=O)COCCOCCNC(=O)CC[C@H](NC(=O)CCCCCCCCCCCCCCCCC(=O)O)C(=O)O)C(=O)N[C@@H](CCC(N)=O)C(=O)N[C@@H](CCC(N)=O)C(=O)N[C@@H](CC(=O)O)C(=O)N[C@@H](Cc1ccccc1)C(=O)N[C@H](C(=O)N[C@@H](CC(N)=O)C(=O)N[C@@H](Cc1c[nH]c2ccccc12)C(=O)N[C@@H](CC(C)C)C(=O)N[C@@H](CC(C)C)C(=O)N[C@@H](C)C(=O)NCC(=O)NCC(=O)N1CCC[C@H]1C(=O)N[C@@H](CO)C(=O)N[C@@H](CO)C(=O)NCC(=O)N[C@@H](C)C(=O)N1CCC[C@H]1C(=O)N1CCC[C@H]1C(=O)N1CCC[C@H]1C(=O)N[C@@H](CO)C(=O)O)C(C)C)[C@@H](C)CC) [AT592] | 0 | 6.31 | 88 | 8.2 |

Reference: patent US20220298218A1 (ANTAG THERAPEUTICS, published 2022)
